In US20030157712:

Molecular target: GST-EphB1cy, self-phosphorylated in vitro (+ATP) (UniProt P54762)
Sequence (P54762 564-984): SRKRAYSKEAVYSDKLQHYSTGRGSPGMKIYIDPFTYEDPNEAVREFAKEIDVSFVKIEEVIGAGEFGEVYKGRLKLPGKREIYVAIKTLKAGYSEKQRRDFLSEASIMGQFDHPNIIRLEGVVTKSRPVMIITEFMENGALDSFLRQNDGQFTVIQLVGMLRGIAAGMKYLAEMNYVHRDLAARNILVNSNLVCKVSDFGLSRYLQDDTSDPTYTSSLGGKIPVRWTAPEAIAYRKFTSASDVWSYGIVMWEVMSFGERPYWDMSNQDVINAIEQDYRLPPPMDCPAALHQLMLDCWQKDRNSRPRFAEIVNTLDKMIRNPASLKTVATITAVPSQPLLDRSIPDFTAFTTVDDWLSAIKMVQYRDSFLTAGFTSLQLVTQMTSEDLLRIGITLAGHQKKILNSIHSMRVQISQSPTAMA

purified recombinant LMW-PTP (A isoform)
in vitro tyrosine phosphorylation of LMW-PTP: EphB1 receptor tyrosine kinase phosphorylates LMW-PTP in vitro
